Assays:
Assay in all cases: SPR (Biacore); KD of SG1 divided by KD of the variant for this FcgR;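 note: relative to parent M103205H795-SG1 carrying the SG1 human heavy chain constant region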
[1] = molecular target: T1, cynomolgus monkey FcγRIIa1 extracellular domain with C-terminal His-tag (cynomolgus monkey)
T1 construct: Expressed in FreeStyle 293 cells and purified; also called cyno FcγRIIa1; cynoFcgRIIa1; not shown: C-terminal His-tag
T1 chain: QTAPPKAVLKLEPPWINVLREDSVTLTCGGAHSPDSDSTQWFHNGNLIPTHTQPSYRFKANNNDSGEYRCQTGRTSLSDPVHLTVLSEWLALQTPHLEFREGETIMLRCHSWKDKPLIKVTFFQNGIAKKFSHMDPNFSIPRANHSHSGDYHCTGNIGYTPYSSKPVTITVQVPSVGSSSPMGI
Procedure: (§1) The kinetic analysis of interactions between these antibodies and FcγR was carried out using BIACORE® T200 or BIACORE® 4000 (GE Healthcare). HBS-EP+ (GE Healthcare) was used as the running buffer, and the measurement temperature was set to 25° C. A chip produced by immobilizing Protein A. Protein A/G or mouse anti-human IgG kappa light chain (BD Biosciences) onto a Series S Sensor Chip CM4 or CM5 (GE Healthcare) by the amine-coupling method was used. […] After the measurement, the antibody captured on the chip was washed off by allowing reaction with 10 mM glycine-HCl, pH1.5 and 25 mM NaOH so that the chip was regenerated and used repeatedly. The sensorgrams obtained as measurement results were analyzed by the 1:1 Langmuir binding model using the BIACORE® Evaluation Software to calculate the binding rate constant ka (L/mol/s) and dissociation rate constant kd (l/s), and the dissociation constant KD (mol/L) was calculated from these values. […] Regarding such interactions, KD values were calculated using the following 1:1 binding model described in BIACORE® T100 Software Handbook BR1006-48 Edition AE.
(§2) The resultant variants were expressed using M103202L889-SK1 as light chain and their affinity to human and cynoFcγRs were evaluated (Table 20).

[2] = molecular target: T2, cynomolgus monkey FcγRIIa2 extracellular domain with C-terminal His-tag (cynomolgus monkey)
T2 construct: Expressed in FreeStyle 293 cells and purified; also called cyno FcγRIIa2; cynoFcgRIIa2; not shown: C-terminal His-tag
T2 chain: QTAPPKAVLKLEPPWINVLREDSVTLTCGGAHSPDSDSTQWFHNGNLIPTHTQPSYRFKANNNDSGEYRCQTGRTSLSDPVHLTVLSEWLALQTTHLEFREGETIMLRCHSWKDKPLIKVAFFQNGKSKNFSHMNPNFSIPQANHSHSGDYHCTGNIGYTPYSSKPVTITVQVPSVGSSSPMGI
Procedure: as §1, §2

[3] = molecular target: T3, cynomolgus monkey FcγRIIa3 extracellular domain with C-terminal His-tag (cynomolgus monkey)
T3 construct: Expressed in FreeStyle 293 cells and purified; also called cyno FcγRIIa3; cynoFcgRIIa3; not shown: C-terminal His-tag
T3 chain: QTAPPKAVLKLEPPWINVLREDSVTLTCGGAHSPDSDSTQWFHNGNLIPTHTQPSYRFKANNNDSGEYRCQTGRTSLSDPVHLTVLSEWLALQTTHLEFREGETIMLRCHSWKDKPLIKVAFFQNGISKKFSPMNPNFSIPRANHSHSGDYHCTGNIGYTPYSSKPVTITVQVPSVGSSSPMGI
Procedure: as §1, §2

[4] = molecular target: T4, cynomolgus monkey FcγRIIIaS extracellular domain with C-terminal His-tag (cynomolgus monkey, UniProt Q8SPW2 21-206 at identity 1.00))
T4 construct: Expressed in FreeStyle 293 cells and purified; also called cyno FcγRIIIaS; cynoFcγRIIIaS; not shown: C-terminal His-tag
T4 chain: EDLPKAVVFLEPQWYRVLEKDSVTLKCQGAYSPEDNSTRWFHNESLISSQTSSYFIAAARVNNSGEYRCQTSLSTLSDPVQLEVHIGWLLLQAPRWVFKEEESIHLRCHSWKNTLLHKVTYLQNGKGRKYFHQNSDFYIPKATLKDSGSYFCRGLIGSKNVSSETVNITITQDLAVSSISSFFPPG
Procedure: as §1, §2

[5] = molecular target: T5, human FcγRIIaH extracellular domain with C-terminal His-tag (human, UniProt P12318 34-217)
T5 construct: Expressed in FreeStyle 293 cells and purified; also called human FcγRIIa (type H); FcgRIIaH; not shown: C-terminal His-tag
T5 sequence: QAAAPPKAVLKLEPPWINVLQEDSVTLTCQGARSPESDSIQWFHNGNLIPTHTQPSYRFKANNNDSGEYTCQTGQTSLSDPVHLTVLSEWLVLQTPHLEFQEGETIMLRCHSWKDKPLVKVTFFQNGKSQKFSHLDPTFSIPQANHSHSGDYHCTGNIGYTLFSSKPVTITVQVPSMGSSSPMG
Procedure: as §1, §2

[6] = molecular target: T6, human FcγRIIaR extracellular domain with C-terminal His-tag (human, UniProt P12318 34-217)
T6 construct: Expressed in FreeStyle 293 cells and purified; also called human FcγRIIa (type R); FcgRIIaR; not shown: C-terminal His-tag
T6 chain: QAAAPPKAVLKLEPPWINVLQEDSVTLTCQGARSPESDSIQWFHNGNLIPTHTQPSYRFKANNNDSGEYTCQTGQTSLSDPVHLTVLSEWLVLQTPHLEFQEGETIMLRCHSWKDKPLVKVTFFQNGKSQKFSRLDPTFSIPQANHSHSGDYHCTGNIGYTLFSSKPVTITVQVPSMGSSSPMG
Procedure: as §1, §2

[7] = molecular target: T7, human FcγRIIb extracellular domain with C-terminal His-tag (human, UniProt P31994 43-217)
T7 construct: Expressed in FreeStyle 293 cells and purified; also called humanFcgRIIb; not shown: C-terminal His-tag
T7 sequence: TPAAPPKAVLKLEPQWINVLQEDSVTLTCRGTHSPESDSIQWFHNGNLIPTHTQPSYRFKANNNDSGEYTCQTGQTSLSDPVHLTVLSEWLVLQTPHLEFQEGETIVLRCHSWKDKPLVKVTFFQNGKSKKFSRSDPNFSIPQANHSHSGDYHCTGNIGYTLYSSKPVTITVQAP
Procedure: as §1, §2

[8] = molecular target: T8, human FcγRIIIaV extracellular domain with C-terminal His-tag (human, UniProt P08637 17-208)
T8 construct: Expressed in FreeStyle 293 cells and purified; also called FcgRIIIaV; not shown: C-terminal His-tag
Procedure: as §1, §2

T8 sequence (P08637 17-208 F176V): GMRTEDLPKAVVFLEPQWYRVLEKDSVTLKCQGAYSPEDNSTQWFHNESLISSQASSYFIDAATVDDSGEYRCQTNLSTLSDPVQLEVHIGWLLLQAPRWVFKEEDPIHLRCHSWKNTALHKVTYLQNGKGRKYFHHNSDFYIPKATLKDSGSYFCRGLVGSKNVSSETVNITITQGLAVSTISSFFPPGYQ

Binder | KD fold (SG1 = 1) [1] [fold] | KD fold (SG1 = 1) [2] [fold] | KD fold (SG1 = 1) [3] [fold] | KD fold (SG1 = 1) [4] [fold] | KD fold (SG1 = 1) [5] [fold] | KD fold (SG1 = 1) [6] [fold] | KD fold (SG1 = 1) [7] [fold] | KD fold (SG1 = 1) [8] [fold]
M103205H795-MY172 / M103202L889-SK1 (antibody, human IgG1, kappa, Position 396 variant derived from MY052, expressed with M103202L889-SK1 as light chain) heavy: QVTLKESGPVLVKPTETLTLTCTVSGIDLSHDDISWVRQAPGKGLEWVGIISYAGSTYYASWAKGRLTISKDTSKNQVVLTMTNMDPVDTATYYCARGVPAYSHGGDLWGQGTLVTVSSASTKGPSVFPLAPSSKSTSGGTAALGCLVKDYFPEPVTVSWNSGALTSGVHTFPAVLQSSGLYSLSSVVTVPSSSLGTQTYICNVNHKPSNTKVDKKVEPKSCDKTHTCPPCPAPELLNGPSVFLFPPKPKDTLMISRTPEVTCVVVDVSEEDPEVKFNWYVDGVEVHNAKTKPREEQYNSTYRVVSVLTVLHQDWLNGKEYKCKVSNKALPAPIEKTISKAKGQPREPQVYTLPPSREEMTKNQVSLTCLVKGFYPSDIAVEWESNGQPENNYKTTPGVLDSDGSFFLYSKLTVDKSRWQQGNVFSCSVMHEALHNHYTQKSLSLSP light: DIVMTQSPATLSLSPGERATLSCTSSQSVYHANWLSWFQQKPGQPPKLLIYWASTLAYGVPSRFSGSGSGTDFTLTISSLQPEDAATYYCAGGYGGGRYAFGQGTKVEIKRTVAAPSVFIFPPSDEQLKSGTASVVCLLNNFYPREAKVQWKVDNALQSGNSQESVTEQDSKDSTYSLSSTLTLSKADYEKHKVYACEVTHQGLSSPVTKSFNRGEC | 1.2 | 1.5 | 1.5 | 0.11 | 0.4 | 0.4 | 2.6 | 0.12
M103205H795-MY174 / M103202L889-SK1 (antibody, human IgG1, kappa, Position 396 variant derived from MY052, expressed with M103202L889-SK1 as light chain) heavy: QVTLKESGPVLVKPTETLTLTCTVSGIDLSHDDISWVRQAPGKGLEWVGIISYAGSTYYASWAKGRLTISKDTSKNQVVLTMTNMDPVDTATYYCARGVPAYSHGGDLWGQGTLVTVSSASTKGPSVFPLAPSSKSTSGGTAALGCLVKDYFPEPVTVSWNSGALTSGVHTFPAVLQSSGLYSLSSVVTVPSSSLGTQTYICNVNHKPSNTKVDKKVEPKSCDKTHTCPPCPAPELLNGPSVFLFPPKPKDTLMISRTPEVTCVVVDVSEEDPEVKFNWYVDGVEVHNAKTKPREEQYNSTYRVVSVLTVLHQDWLNGKEYKCKVSNKALPAPIEKTISKAKGQPREPQVYTLPPSREEMTKNQVSLTCLVKGFYPSDIAVEWESNGQPENNYKTTPIVLDSDGSFFLYSKLTVDKSRWQQGNVFSCSVMHEALHNHYTQKSLSLSP light: DIVMTQSPATLSLSPGERATLSCTSSQSVYHANWLSWFQQKPGQPPKLLIYWASTLAYGVPSRFSGSGSGTDFTLTISSLQPEDAATYYCAGGYGGGRYAFGQGTKVEIKRTVAAPSVFIFPPSDEQLKSGTASVVCLLNNFYPREAKVQWKVDNALQSGNSQESVTEQDSKDSTYSLSSTLTLSKADYEKHKVYACEVTHQGLSSPVTKSFNRGEC | 2.1 | 3.2 | 2.7 | 0.14 | 0.9 | 0.8 | 5.4 | 0.12
M103205H795-MY173 / M103202L889-SK1 (antibody, human IgG1, kappa, Position 396 variant derived from MY052, expressed with M103202L889-SK1 as light chain) heavy: QVTLKESGPVLVKPTETLTLTCTVSGIDLSHDDISWVRQAPGKGLEWVGIISYAGSTYYASWAKGRLTISKDTSKNQVVLTMTNMDPVDTATYYCARGVPAYSHGGDLWGQGTLVTVSSASTKGPSVFPLAPSSKSTSGGTAALGCLVKDYFPEPVTVSWNSGALTSGVHTFPAVLQSSGLYSLSSVVTVPSSSLGTQTYICNVNHKPSNTKVDKKVEPKSCDKTHTCPPCPAPELLNGPSVFLFPPKPKDTLMISRTPEVTCVVVDVSEEDPEVKFNWYVDGVEVHNAKTKPREEQYNSTYRVVSVLTVLHQDWLNGKEYKCKVSNKALPAPIEKTISKAKGQPREPQVYTLPPSREEMTKNQVSLTCLVKGFYPSDIAVEWESNGQPENNYKTTPHVLDSDGSFFLYSKLTVDKSRWQQGNVFSCSVMHEALHNHYTQKSLSLSP light: DIVMTQSPATLSLSPGERATLSCTSSQSVYHANWLSWFQQKPGQPPKLLIYWASTLAYGVPSRFSGSGSGTDFTLTISSLQPEDAATYYCAGGYGGGRYAFGQGTKVEIKRTVAAPSVFIFPPSDEQLKSGTASVVCLLNNFYPREAKVQWKVDNALQSGNSQESVTEQDSKDSTYSLSSTLTLSKADYEKHKVYACEVTHQGLSSPVTKSFNRGEC | 1.9 | 2.8 | 2.1 | 0.12 | 0.7 | 0.6 | 4.6 | 0.12

Source: patent US20200317768A1 (published 2020)
